Assay [1] concerns the target human G Protein coupled receptor 48 (GPR48), endogenous, in colorectal cancer cells, tissues and organoids (human) (UniProt Q9BXB1). Briefly: cell-based or functional assay.
The target is the same in assay [2]. The assay is described as follows: western blot on P6C lysate, dilution series of antibody. A general note: In western blotting, separated proteins are transferred to a membrane and probed.
Assay [3] has the same target. Briefly: flow cytometry on P6C cells, dilution series of antibody, FITC goat anti-mouse IgG. On the technique in general: Flow cytometry measures light scatter and fluorescence of single cells or particles in a stream.

The record followed here is patent publication US20240101665A1.

Regarding “Commercial GPR48 monoclonal antibody, R&D Systems, clone #852229, product number MAB7750”, in assay [1], the inhibition rate, colony formation of HCT116 cells, 10 µg/ml antibody came to 15.4%; the inhibition rate, colony formation of P6C cells, 10 µg/ml antibody was 9.7%; the inhibition rate, colony formation of SW480 cells, 10 µg/ml antibody was found to be 26.1%. In assay [2], this substance gave a titer (reciprocal dilution (1:x) of 1 mg/ml) of 300. This substance showed a dilution factor (dilution factor) in assay [3] of 100.
